Test results as given in the supplement of paper PMC10567573.

B1: FAM189A2 (parent)
chain: CALNALTTTVCLVAAALRYLQIFA
B2: RHOBTB3 (parent)
chain: STTEGIQLAKELGATYLELHSLDD

Variants of: B1
Experiment: protein stability index of a GFP-peptide fusion (GPS, HEK-293T) (PSI 1-6); higher = more stable
Settings: c terminus: a fixed tail appended
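Also: lentivirally expressed fusions sorted by FACS into six bins by GFP to DsRed ratio, PSI derived from sequencing read proportions per bin multiplied by bin number.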

Protein stability index: each site, then its substitutions
T8: L 1.99, I 3.39, S 2.63, K 1.93, G 1.91, N 3.77, W 3.44, F 3.49, M 2.93, A 3.34, E 4.29
L20: G 2.41, F 2.75, K 3.6, Q 3.06, I 2.76
Y19: E 3.73, H 1.98, P 2.86, N 3.25, S 3.45, W 3.75, C 3.41
A2: Q 3.74, Y 3.17, I 2.77, D 4.37, K 3.83, M 2.77, P 3.11, G 3.74
A15: C 2.71, V 3.64, Y 3.03, F 4.15, T 1.8, M 3.68, R 2.41, D 3.14, S 3.48, N 3.15, H 2.6
A16: P 2.79, L 3.09, N 2.1, K 4.22, S 2.97, W 1.55, Y 2.27, R 3.06, H 3.78, V 3.33
T7: A 3.07, R 2.34, N 3.42, G 2.78, P 3.27, C 3.6, F 2.06, K 1.87, W 2.89, D 2.18
A5: L 2.77, E 3.02, I 3.46, T 3.6, Q 3.79, S 3.5, K 4.99, N 2.07, F 2.29
I22: N 2.58, E 3.28, T 2.33, K 2.14, A 1.99, W 3.83, Q 2.9, S 3.43, H 2.75, L 2.83, F 2.44, R 2.16
F23: Y 2.85, D 2.47, M 4.05, C 3.26, S 3.01, T 2.22, L 3.45, P 3.42
L3: S 2, I 1.61, E 3.25, Q 3, N 2.3, W 1.62, K 1.92
L12: C 2.39, F 2.56, G 3.05, I 3.35, W 3.65, H 3.28, R 2.39
L6: F 1.13, M 4.19, C 2.11, P 3.83, W 3.2, N 3.48
N4: T 2.17, S 3.62, K 2.35, D 2.85, R 3.01, C 2.79, E 2.1, A 1.84, G 2.34
V10: H 3.15, I 2.3, E 3.04, L 3.21, R 1.62, D 4.46, Q 4.03
T9: S 3.11, Y 2.69, E 2.63, I 2.68, C 2.34, D 2.65, A 3.62
A24: I 2.19, S 4.25, D 2.51, V 3.43, C 3.96, T 3.23, P 2.09, G 4.19, E 2.8
L17: E 3.03, I 4.04, H 2.72, M 4.11, G 3.97, K 3.29, C 3.24, W 3.15, Y 2.25
A14: I 3.7, K 2.69, W 1.93, Q 2.2, G 2.74, R 2.23, C 4.5, H 4.41, F 3.14, T 3.07, L 3.6
C11: H 1.63, F 3.1, M 2.97, A 3.95, N 1.91, P 2.3, L 3.18, I 4.44, K 3.55, T 2.74
C1: K 3.08, Q 3.13, G 2.6, V 1.85, N 3.61, F 4.75, Y 2.99, S 3.48, P 1.11
V13: K 2.78, L 2.8, N 2.88, Q 2.8, E 3.61, P 2.88, S 2.06, F 3.5, T 3, D 2.59
R18: T 2.38, D 3.02, V 3.16, E 3.6, M 1.38, K 3.85
Q21: K 2.07, L 3.19, T 3.12, V 2.12, C 2.75, F 2.15, A 3.09, Y 3.35, N 2.02

Variants of: B2
Experiment: as above
Settings: c terminus: a fixed tail appended

Protein stability index of substitutions, site by site:
T2: Q 3.85, K 3.5, N 4.11, L 2.21, G 2.54, W 1.58
H20: K 2.42, Y 2.44, D 4.95, P 4.93
I6: S 4.39, E 4.71, R 3.6
A9: Q 3.52, C 3.08, H 4.38, L 1.19, S 4.24
L19: T 4.96, R 4.43, G 5.31, Q 5.55
L12: E 4.99, T 4.88, Q 4.31, M 4.48, N 4.77
G5: I 1.92, D 2.49, V 3.98, Y 2.91, R 3.89, L 3.64, Q 3.94
L17: F 3.27, P 4.88, A 5.04, Y 4.12, D 5.55, M 4.11
D23: W 2.92, N 3.13, T 3.75, R 2.81, I 2.07
L22: M 4.32, D 4.96, Y 4.41, G 3.38
Q7: D 4.68, I 3.37, F 3.37, W 2.5, M 2.86
E11: K 2.94, W 1.73, V 2.87, I 2.39, T 3.61, L 2.19
E18: M 2.66, C 2.62, W 1.61, D 4.36, G 3.72
K10: P 4.33, W 1.5, V 2.06, F 1.38
G13: A 1.75, E 2.73, W 1.39, L 1.28, C 2.88, K 3.16
S21: R 2.86, G 4, H 3.38, Y 1.59, Q 3.39
A14: M 3.58, R 3.59, S 4.02, H 4.1
D24: G 1.94, K 3.02, T 2.05, V 1.57, I 2.7, S 2.02
T3: R 3.03, A 2.94, C 2.22, F 2.29, P 3.56, I 2.73
L8: H 4.53, A 4.29, K 4.78, G 5.04, R 4.41
S1: G 3.69, I 2.44, F 2.39, D 4.37, E 4.26, A 3.21, L 2.26
T15: S 3.71, P 3.37, I 1.99, E 4.87, R 3.83, Y 3.49, W 2.02
Y16: S 4.84, K 4.81, L 2.91, N 5.25, E 4.35, T 4.28
E4: R 3.42, I 2.35, H 3.37, T 3.67, Y 2.27, Q 2.71
